Values of other authors as cited in article PMC3669279.
Like-named read-outs stand apart in the source and are kept apart here.

Experiments:
[1] = molecular target: protective antigen (PA) (Bacillus anthracis) (UniProt P13423)
[2] = molecular target: protective antigen (PA) (Bacillus anthracis) (UniProt P13423); remark: listed apart in the source

Row | Substance | Kd [1] [nM] | Kd [2] [nM]
1 | lethal factor (LF) (from UniProt P15917) | 1 | 
2 | edema factor (EF) (from UniProt P40136) |  | 1
